Assay results from article PMC8211825, “Molecular mechanism of calcium induced trimerization of C1q-like domain of otolin-1 from human and zebrafish” (Scientific Reports, 2021).
Where a chain is given by its changes, count along the chain named. In names and notes the source's numbering stands. Several values for one entry are separate records, joined by “and”; a condition that tells them apart may be missing. Equal values may be shown once.

B1: C1q-like domain of otolin-1 from human (domain or fragment, UniProt A6NHN0 338-473, looked up)
chain: ARVPRSAFSAGLSKPFPPPNIPIKFEKILYNDQGNYSPVTGKFNCSIPGTYVFSYHITVRGRPARISLVAQNKKQFKSRETLYGQEIDQASLLVILKLSAGDQVWLEVSKDWNGVYVSAEDDSIFTGFLLYPEETS
notes: gC1q (C1q-like) domain of human otolin-1, UniProt A6NHN0; printed monomer MW 17.0 kDa; Subcloned in pQE-80 L; The tag is known only from TALON purification and a 6xHis Western blot; also called hOtolC1q; native hOtolC1q
B2: hOtolC1q E470A (domain or fragment, human, UniProt A6NHN0 338-473, looked up)
chain: B1 chain with E133A
notes: gC1q (C1q-like) domain of human otolin-1, UniProt A6NHN0, natural SNP variant E470A (rs3921595); also called E470A variant; natural variant hOtolC1q E470A; source: 0.1% NP40 substitute added to the cell suspension
B3: C1q-like domain of otolin-1 from zebrafish (domain or fragment)
chain: not shown
notes: gC1q (C1q-like) domain of zebrafish otolin-1, UniProt A5PN28; printed monomer MW 17.1 kDa; Subcloned in pQE-80 L; also called dOtolC1q; native dOtolC1q

Molecular target: the molecule itself
Assay: AUC; sedimentation velocity, c(s) analysis in SEDFIT; 10 mM CaCl2; 10 mM HEPES pH 7.0, 500 mM NaCl, 5% glycerol; 20 °C, 50,000 rpm; protein about 0.1, 0.25 and 0.5 mg/ml; self-association of the gC1q domain into trimers

Protein | stoichiometry N
B1 | 3
B2 | 3
B3 | 2 and 3
